Experimental data reported in the RNAGym collection of RNA variant scans (doi:10.1073/pnas.2313332121).

B1: TPR t1 (parent)
chain: GACCAAUCUGCCCUCAGAGCUCGAGAACAUCUUCGGAUGCAGAGGAGGCAGGCUUCGGUGGCGCGAUAGCGCCAACGUCCUCAACCUCCAAUGCAUCCCACCACAUGAUGAUGCCUGAAGAGCCUUGGUUUUUUG

Variants of: B1
Experiment: polymerase ribozyme fitness, log enrichment relative to wild type (log ratio); higher = more active; in vitro selection for triplet polymerase activity
In short: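 In triplicate, a single round of in vitro selection was run on each mutant library, PCR-built and transcribed, covering one subunit of a heterodimeric triplet polymerase ribozyme. Frozen incubation at −7 °C followed annealing with a biotinylated primer, partner subunit and triplets, and extended constructs were then gel-excised, streptavidin-captured and taken through RT-PCR. Fitness is the logarithm of genotype enrichment over wild-type enrichment, from inverse-variance-weighted replicate averages of Illumina-sequenced inputs and outputs. […] only genotypes with ≥10 input reads and ≥1 read per output were kept.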
For GACCAAUCUGCCCUCAGAGCUCGAGAACAUCUUCGGAUGCAGAGGAGGCAGGCUUCGGUGGCGCGAUAGCGACAACGUCCUCAACCUCCAAUGCAUCCCACCACAUGAUGAUGCCUGAAGAGCCGUGGUUAUUUG [C72A U125G U131A], the “polymerase ribozyme fitness (log ratio)” value was -0.709. With GACCAAUCUGCCCUCAGAGCUCGAGAACAUCUUCGGAUGCAGAGGAGGCAGGCUUCGGUGGCGCGAUAGCGGCAACGUCCCCAACCUCCAAUGCAUCCCAUCACAUGAUGAUGCCUGAAGAGCCUUGGUUUUUUG [C72G U81C C101U] the “polymerase ribozyme fitness (log ratio)” value was -0.875. In the case of GACCAAUCUGCCCUCAGAGCUCGAGAACAUCUUCGGAUGCAGAGGAGGCAGGCUUCGGUGGCGCGAUAGCGGCAACUUCCUCAAUCUCCAAUGCAUCCCACCACAAGAAGAUGCCUGAAGAGCCUUGGUUUUUUG [C72G G77U C85U U106A U109A], the “polymerase ribozyme fitness (log ratio)” value is reported as -7.01. For GACCAAUCUGCCCUCAGAGCUCGAGAACAUCUUCGGAUGCAGAGGAGGCAGGCUUCGGUGGCGCGAUAGCGGCAACGUCCUCAACGUCCAAUGCAUCCCACCACAUGAUGAUGCCUGAAGUGCCAUGGUUUUUUU [C72G C86G A121U U125A G135U], the “polymerase ribozyme fitness (log ratio)” value was -2.76. With GACCAAUCUGCCCUCAGAGCUCGAGAACAUCUUCGGAUGCAGAGGAGGCAGGCUUCGGUGGCGCGAUAGCGGCAACGUCCUCAACCUCCAAUGCAUCCCACCACAUGAUGUUGCCUGAAGAGCCUUGGUGUUUUG [C72G A111U U130G] the “polymerase ribozyme fitness (log ratio)” value was -4.27. In the case of GACCAAUCUGCCCUCAGAGCUCGAGAACAUCUUCGGAUGCAGAGGAGGCAGGCUUCGGUGGCGCGAUAGCGGCAACGUCCUCAACCUCCAAUGCAUCCCACCACAUGAUGAUGCCUUAAGUGCCUUAGUUUUUUG [C72G G117U A121U G127A], the “polymerase ribozyme fitness (log ratio)” value is reported as -3.25. With GACCAAUCUGCCCUCAGAGCUCGAGAACAUCUUCGGAUGCAGAGGAGGCAGGCUUCGGUGGCGCGAUAGCGGCAACGUCCUUAACCUCCAAUGCAUCCCACAACAUGAUGAUGCCUGAAAAGCCUUGGUUUUUUG [C72G C82U C102A G120A] the “polymerase ribozyme fitness (log ratio)” value was -1.89. For GACCAAUCUGCCCUCAGAGCUCGAGAACAUCUUCGGAUGCAGAGGAGGCAGGCUUCGGUGGCGCGAUAGCGGCAACGUCCAGAACCUCCAAUGCAUCCCACCACAUGAUGAUGCCUGAAGAGCCUUGCUUUUUUG [C72G U81A C82G G128C], the “polymerase ribozyme fitness (log ratio)” value was -4.54. In the case of GACCAAUCUGCCCUCAGAGCUCGAGAACAUCUUCGGAUGCAGAGGAGGCAGGCUUCGGUGGCGCGAUAGCGACAACGUCCUCAACCUCCAAUGCAUCCCACCACAUGAUGAUGCCUGAAGAGCCUUGGUAUUUUG [C72A U130A], the “polymerase ribozyme fitness (log ratio)” value is reported as -0.443. With GACCAAUCUGCCCUCAGAGCUCGAGAACAUCUUCGGAUGCAGAGGAGGCAGGCUUCGGUGGCGCGAUAGCGGCAACGUCCUCAACCUCCAAUGCCUCCCACCACAUGAUGAUGCCUGAAGAGCCUUGGUUUUUUG [C72G A95C] the “polymerase ribozyme fitness (log ratio)” value was -2.36. With GACCAAUCUGCCCUCAGAGCUCGAGAACAUCUUCGGAUGCAGAGGAGGCAGGCUUCGGUGGCGCGAUAGCGGCAACGUCCUCAACCUCCAAUGCAUCCCACCACAUGAUGAUGCCUGAAGAGUCUUGGUUUUUUG [C72G C123U] the “polymerase ribozyme fitness (log ratio)” value was 0.62. In the case of GACCAAUCUGCCCUCAGAGCUCGAGAACAUCUUCGGAUGCAGAGGAGGCAGGCUUCGGUGGCGCGAUAGCGGCAACGUCCUCAACCUUCAAUGCAUCCCACCACAUGAUGAUGCCUGAAGAGCCUUGGAUUUUUG [C72G C88U U129A], the “polymerase ribozyme fitness (log ratio)” value is reported as -0.881. In the case of GACCAAUCUGCCCUCAGAGCUCGAGAACAUCUUCGGAUGCAGAGGAGGCAGGCUUCGGUGGCGCGAUAGCGGCAACGUCCUCAACCUCCACUGCAUCCCACCACAUGAUGAUGCCUGAAGAGCCUUGGUUUUUUG [C72G A91C], the “polymerase ribozyme fitness (log ratio)” value is reported as -1.51. In the case of GACCAAUCUGCCCUCAGAGCUCGAGAACAUCUUCGGAUGCAGAGGAGGCAGGCUUCGGUGGCGCGAUAGCGGCAACGUCCUCAACCUCCAGUGCAUCCCACCACAUGAUGAUGCCUGAAGAGCCUUGGUUUUUUG [C72G A91G], the “polymerase ribozyme fitness (log ratio)” value is reported as -1.13. In the case of GACCAAUCUGCCCUCAGAGCUCGAGAACAUCUUCGGAUGCAGAGGAGGCAGGCUUCGGUGGCGCGAUAGCGGCAACGUCCUCAACCUCCAAUGCAUCCCACCACAUGAUGCUGCCUGAAGAGCCUUGGUUUUUUG [C72G A111C], the “polymerase ribozyme fitness (log ratio)” value is reported as -0.642. In the case of GACCAAUCUGCCCUCAGAGCUCGAGAACAUCUUCGGAUGCAGAGGAGGCAGGCUUCGGUGGCGCGAUAGCGGCAACGUCCUCAACCUCCAAUGCAUCCCACCACAUGAUGAUGCCUGAGGAGCCUUGGUUUUUUG [C72G A119G], the “polymerase ribozyme fitness (log ratio)” value is reported as 1.3. With GACCAAUCUGCCCUCAGAGCUCGAGAACAUCUUCGGAUGCAGAGGAGGCAGGCUUCGGUGGCGCGAUAGCGGCAACGUCCUCAACCUCCAAUGCAUCCCACCACAUGAUGAUCUGUGAAGAGCUUUGGUUUUUUG [C72G G113C C114U C115G C124U] the “polymerase ribozyme fitness (log ratio)” value was -4.29. In the case of GACCAAUCUGCCCUCAGAGCUCGAGAACAUCUUCGGAUGCAGAGGAGGCAGGCUUCGGUGGCGCGAUAGCGACAACGUCCUCAACCUCCAAUGCAUCCCACCACAUGAUGAUGCCUGAAGAGCCUUGGUUCUUUG [C72A U131C], the “polymerase ribozyme fitness (log ratio)” value is reported as -0.247. For GACCAAUCUGCCCUCAGAGCUCGAGAACAUCUUCGGAUGCAGAGGAGGCAGGCUUCGGUGGCGCGAUAGCGGCAACGUCCGCAACCUCCAAUGCAUUCCACCACAUGAUGAUGCCUGAAGAGCCUUGGUUUUUUG [C72G U81G C97U], the “polymerase ribozyme fitness (log ratio)” value was -4.63. In the case of GACCAAUCUGCCCUCAGAGCUCGAGAACAUCUUCGGAUGCAGAGGAGGCAGGCUUCGGUGGCGCGAUAGCGGCAACGUCCUGAACCUCCAAUGCAUCCCACCACAUGAUGAUGCCUGAAGAGCCUUGGUUUUUUG [C72G C82G], the “polymerase ribozyme fitness (log ratio)” value is reported as -1. For GACCAAUCUGCCCUCAGAGCUCGAGAACAUCUUCGGAUGCAGAGGAGGCAGGCUUCGGUGGCGCGAUAGCGGCAACGUCCUAAACCUCCAAUGCAUCCCACCACAUGAUGAUGCCUGAAGAGCCUUGGUUUUUUG [C72G C82A], the “polymerase ribozyme fitness (log ratio)” value was -1.18.
